Measurements: patent US11505811B2, “Method for the preparation of 2,4-dihydroxybutyrate” (ADISSEO FRANCE S.A.S., priority 2012, dated 2022)
Numbering of substitutions follows the chain as printed. In names and notes the source's numbering stands.

B1: Q85N: L. lactis lactate dehydrogenase A, Ll-LdhA, mutant Q85N, SEQ ID No. 30 (protein, listed as Lactococcus lactis)
chain: MADKQRKKVILVGDGAVGSSYAFALVNQGIAQELGIVDLFKEKTQGDAEDLSHALAFTSPKKIYSADYSDASDADLVVLTSGAPNKPGETRLDLVEKNLRITKDVVTKIVASGFKGIFLVAANPVDILTYATWKFSGFPKNRVVGSGTSLDTARFRQALAEKVDVDARSIHAYIMGEHGDSEFAVWSHANVAGVKLEQWFQENDYLNEAEIVELFESVRDAAYSIIAKKGATFYGVAVALARITKAILDDEHAVLPVSVFQDGQYGVSDCYLGQPAVVGAEGVVNPIHIPLNDAEMQKMEASGAQLKAIIDEAFAKEEFASAVKN
B2: Q85NI226V: L. lactis lactate dehydrogenase A, Ll-LdhA, mutant Q85N I226V, SEQ ID No. 32 (protein, listed as Lactococcus lactis)
chain: B1 chain with I226V
B3: Ec-LdhA: (D)-lactate dehydrogenase from Escherichia coli, SEQ ID NO: 4 (protein, listed as Escherichia coli)
chain: MKLAVYSTKQYDKKYLQQVNESFGFELEFFDFLLTEKTAKTANGCEAVCIFVNDDGSRPVLEELKKHGVKYIALRCAGFNNVDLDAAKELGLKVVRVPAYDPEAVAEHAIGMMMTLNRRIHRAYQRTRDANFSLEGLTGFTMYGKTAGVIGTGKIGVAMLRILKGFGMRLLAFDPYPSAAALELGVEYVDLPTLFSESDVISLHCPLTPENYHLLNEAAFEQMKNGVMIVNTSRGALIDSQAAIEALKNQKIGSLGMDVYENERDLFFEDKSNDVIQDDVFRRLSACHNVLFTGHQAFLTAEALTSISQTTLQNLSNLEKGETCPNELV
B4: Ec-IlvE: branched-chain-amino-acid transaminase from Escherichia coli, SEQ ID No. 60 (protein, listed as Escherichia coli)
chain: MTTKKADYIWFNGEMVRWEDAKVHVMSHALHYGTSVFEGIRCYDSHKGPVVFRHREHMQRLHDSAKIYRFPVSQSIDELMEACRDVIRKNNLTSAYIRPLIFVGDVGMGVNPPAGYSTDVIIAAFPWGAYLGAEALEQGIDAMVSSWNRAAPNTIPTAAKAGGNYLSSLLVGSEARRHGYQEGIALDVNGYISEGAGENLFEVKDGVLFTPPFTSSALPGITRDAIIKLAKELGIEVREQVLSRESLYLADEVFMSGTAAEITPVRSVDGIQVGEGRCGPVTKRIQQAFFGLFTGETEDKWGWLDQVNQ
B5: Sc-ARO8: aromatic-amino-acid transaminase from Saccharomyces cerevisiae, SEQ ID No. 70 (protein, listed as Saccharomyces cerevisiae)
chain: MTLPESKDFSYLFSDETNARKPSPLKTCIHLFQDPNIIFLGGGLPLKDYFPWDNLSVDSPKPPFPQGIGAPIDEQNCIKYTVNKDYADKSANPSNDIPLSRALQYGFSAGQPELLNFIRDHTKIIHDLKYKDWDVLATAGNTNAWESTLRVFCNRGDVILVEAHSFSSSLASAEAQGVITFPVPIDADGIIPEKLAKVMENWTPGAPKPKLLYTIPTGQNPTGTSIADHRKEAIYKIAQKYDFLIVEDEPYYFLQMNPYIKDLKEREKAQSSPKQDHDEFLKSLANTFLSLDTEGRVIRMDSFSKVLAPGTRLGWITGSSKILKPYLSLHEMTIQAPAGFTQVLVNATLSRWGQKGYLDWLLGLRHEYTLKRDCAIDALYKYLPQSDAFVINPPIAGMFFTVNIDASVHPEFKTKYNSDPYQLEQSLYHKVVERGVLVVPGSWFKSEGETEPPQPAESKEVSNPNIIFFRGTYAAVSPEKLTEGLKRLGDTLYEEFGISK
B6: Gs-Ldh: (L)-lactate dehydrogenase of Geobacillus stearothermophilus, SEQ ID NO: 10 (protein, listed as Geobacillus sterarothermophillus)
chain: MKNNGGARVVVIGAGFVGASYVFALMNQGIADEIVLIDANESKAIGDAMDFNHGKVFAPKPVDIWHGDYDDCRDADLVVICAGANQKPGETRLDLVDKNIAIFRSIVESVMASGFQGLFLVATNPVDILTYATWKFSGLPHERVIGSGTILDTARFRFLLGEYFSVAPQNVHAYIIGEHGDTELPVWSQAYIGVMPIRKLVESKGEEAQKDLERIFVNVRDAAYQIIEKKGATYYGIAMGLARVTRAILHNENAILTVSAYLDGLYGERDVYIGVPAVINRNGIREVIEIELNDDEKNRFHHSAATLKSVLARAFTR
B7: Bs-Ldh: (L)-lactate dehydrogenase of Bacillus subtilis, SEQ ID NO: 8 (protein, listed as Bacillus subtilis)
chain: MMNKHVNKVALIGAGFVGSSYAFALINQGITDELVVIDVNKEKAMGDVMDLNHGKAFAPQPVKTSYGTYEDCKDADIVCICAGANQKPGETRLELVEKNLKIFKGIVSEVMASGFDGIFLVATNPVDILTYATWKFSGLPKERVIGSGTTLDSARFRFMLSEYFGAAPQNVHAHIIGEHGDTELPVWSHANVGGVPVSELVEKNDAYKQEELDQIVDDVKNAAYHIIEKKGATYYGVAMSLARITKAILHNENSILTVSTYLDGQYGADDVYIGVPAVVNRGGIAGITELNLNEKEKEQFLHSAGVLKNILKPHFAEQKVN
B8: Ll-BcaT: branched-chain-amino-acid transaminase from Lactococcus lactis, SEQ ID No. 68 (protein, listed as Lactococcus lactis)
chain: MAINLDWENLGFSYRNLPFRYIARFKDGKWSAGELTGDNQLHISESSPALHYGQQGFEGLKAYRTKDGSIQLFRPDQNAARLQNTARRLCMAEVPTEMFIDAVKQVVKANEDFVPPYGTGATLYLRPLLIGVGDVIGVKPADEYIFTVFAMPVGSYFKGGLAPSKFVISRDYDRAAPLGTGGAKVGGNYAASLQAEVGAKASGYADAIYLDPSTHTKIEEVGAANFFGITADNEFITPLSPSILPSITKYSLLYLAEHRLGLKAIEGEVYAKDLGKFVEAGACGTAAIISPIGRIDDGEDSYIFHSETEVGPTVKRLYDELVGIQFGDVEAPEGWIVKVD
B9: Ll-AraT: aromatic-amino-acid transaminase from L. lactis, SEQ ID No. 66 (protein, listed as Lactococcus lactis)
chain: MDLLKKFNPNLDKIEISLIRQFDQQVSSIPDVIKLTLGEPDFYTPEHVKQAGIVAIENNQSHYTGMAGLLELRQAASEFMNKKYGLSYAAEDEILVTVGVTEAISSVLLSILVAGDEVLIPAPAYPGYEPLITLAGGSLVEIDTRANDFVLTPEMLEQAIVEREGKVKAVILNYPANPTGVTYNRGQIKALAEVLKKHEVFVIADEVYSELNYTDQPHVSIAEYAPEQTIVLNGLSKSHAMTGWRIGLIFAARELVAQIIKTHQYLVTSASTQSQFAAIEALKNGAYDALPMKKEYLKRRDYIIEKMSDLGFKIIEPDGAFYIFAKIPADLEQDSFKFAVDFAKENAVAIIPGIAFGQYGEGFVRLSYAASMDMIEQAMARLTDYVTKKRG
B10: Ec-TyrB: aromatic-amino-acid transaminase from E. coli, SEQ ID No. 62 (protein, listed as Escherichia coli)
chain: VFQKVDAYAGDPILTLMERFKEDPRSDKVNLSIGLYYNEDGIIPQLQAVAEAEARLNAQPHGASLYLPMEGLNCYRHAIAPLLFGADHPVLKQQRVATIQTLGGSGALKVGADFLKRYFPESGVWVSDPTWENHVAIFAGAGFEVSTYPWYDEATNGVRFNDLLATLKTLPARSIVLLHPCCHNPTGADLTNDQWDAVIEILKARELIPFLDIAYQGFGAGMEEDAYAIRAIASAGLPALVSNSFSKIFSLYGERVGGLSVMCEDAEAAGRVLGQLKATVRRNYSSPPNFGAQVVAAVLNDEALKASWLAEVEEMRTRILAMRQELVKVLSTEMPERNFDYLLNQRGMFSYTGLSAAQVDRLREEFGVYLIASGRMCVAGLNTANVQRVAKAFAAVM

Tests used:
Type in all cases: biochemical
[1] = OHB reductase activity, NADH absorption at 340 nm
Procedure: (§1) Enzymatic assays: The reaction mixture contained 60 mM Hepes (pH 7), 50 mM potassium chloride, 5 mM MgCl2, 0.25 mM NADH, (optionally 5 mM fructose-1,6-bisphosphate) (all products from Sigma), and appropriate amounts of purified malate or lactate dehydrogenase or cell extract. Reactions were started by adding appropriate amounts of 2-oxo-4-hydroxybutyrate (OHB), pyruvate, or oxaloacetate (OAA). Enzymatic assays were carried out at 37° C. in 96-well flat bottomed microtiter plates in a final volume of 250 μL. The reactions were followed by the characteristic absorption of NADH at 340 nm (εNADH=6.22 mM^−1 cm^−1) in a microplate reader (BioRad 680XR).
OHB was synthesized by incubating 125 mM homoserine with snake venom (L)-amino acid oxidase (1.25 U/mL, Sigma) and catalase (4400 U/mL, Sigma) in 100 mM Tris buffer at pH 7.8 for 90 min at 37° C. Subsequently, the reaction mixture was purified on an Amicon™ Ultra centrifugal filter with a cut-off of 10 kDa to eliminate the enzymes (method adapted from Wellner & Lichtenberg, 1971).
OHB was quantified by mixing 100 μL of the tested solution with 1 mL of a solution containing 1 M sodium arsenate and 1 M boric acid at pH 6.5. The mixture was incubated at room temperature for 30 min and the absorbance at 325 nm was used to quantify OHB. The relation between absorbance and concentration of the ketone was calibrated using pyruvate solutions of known concentrations (method adapted from (Wellner & Lichtenberg, 1971)). The typical OHB yield of the method was 90%.

[2] = pyruvate reductase activity, NADH absorption at 340 nm; settings: for Max. specific activity, Pyruvate: L. lactis Ll-LdhA mutants; for Max. specific activity, natural substrate: natural substrate of Ldh: pyruvate, purified enzyme, 37° C., pH 7
Procedure: as §1

[3] = transaminase activity on preferred amino acid (L), coupled dehydrogenase assay; settings: superscript (L); 50 mM amino acid; 2-oxoglutarate as acceptor
Procedure: (§2) Enzymatic assays: Transaminase activity of several candidate aminotransferases was quantified with 2-oxoglutarate as the amino group acceptor. Transaminase reactions were carried out using homoserine and the preferred amino acid of the enzymes. The reactions were followed by the amino acid-dependent oxidation of NADH in the coupled dehydrogenase reaction.
(§3) Transaminase Assays (Reaction Scheme)
(§4) Transaminase: Amino acid+2-oxoglutarate→2-oxo-acid+glutamate
(§5) Dehydrogenase: 2-oxo-acid+NADH→2-hydroxy-acid+NAD^+
The reaction mixture contained 60 mM Hepes (pH 7), 50 mM potassium chloride, 5 mM MgCl2, 4 mM 2-oxoglutarate, 0.1 mM pyridoxal-5′-phosphate (PLP), 0.25 mM NADH, (optionally 5 mM fructose-1,6-bisphosphate) (all products from Sigma), 4 Units/mL of auxiliary 2-hydroxyacid dehydrogenase, and appropriate amounts of purified aminotransferase or cell extract. […]
(§6) Enzymatic assays were carried out at 37° C. in 96-well flat bottomed microtiter plates in a final volume of 250 μL. The reactions were followed by the characteristic absorption of NAD(P)H at 340 nm (εNADPH=6.22 mM^−1 cm^−1) in a microplate reader (BioRad 680XR).

[4] = homoserine transaminase activity, coupled dehydrogenase assay; settings: measured at 50 mM homoserine; 2-oxoglutarate as acceptor
Procedure: as §2, §3, §4, §5
The reaction mixture contained 60 mM Hepes (pH 7), 50 mM potassium chloride, 5 mM MgCl2, 4 mM 2-oxoglutarate, 0.1 mM pyridoxal-5′-phosphate (PLP), 0.25 mM NADH, (optionally 5 mM fructose-1,6-bisphosphate) (all products from Sigma), 4 Units/mL of auxiliary 2-hydroxyacid dehydrogenase, and appropriate amounts of purified aminotransferase or cell extract. The auxiliary dehydrogenase enzyme was purified PanE from L. lactis in case of the amino acids phenylalanine and leucine (Chambellon, Rijnen, Lorquet, Gitton, van HylckamaVlieg, Wouters, & Yvon, 2009), malate dehydrogenase (Sigma) in case of aspartate, and rabbit muscle (L)-lactate dehydrogenase (Sigma) when homoserine was used as the starting substrate. Reactions were started by adding 50 mM of the amino acid.
as §6

[5] = when not saturated, activity estimated at 20 mM substrate

Molecule | Max. specific activity, OHB [1, 5] | Max. specific activity, natural substrate [2] | Max. specific activity on Homoserine [4] | further results
B1 | – | – | – | Max. specific activity, OHB ([1]; L. lactis Ll-LdhA mutants): 63.9 µmol/mg/min; Max. specific activity, Pyruvate [2]: 184 µmol/mg/min
B2 | – | – | – | Max. specific activity, OHB ([1]; L. lactis Ll-LdhA mutants): 4.9 µmol/mg/min; Max. specific activity, Pyruvate [2]: 11.5 µmol/mg/min
B3 | 0.56 µmol/mg/min | 265 µmol/mg/min | – | –
B4 | – | – | 0.077 μmol/(min mgprot) | Max. specific activity on preferred amino acid (L) [3]: 10.3^(L) μmol/(min mgprot)
B5 | – | – | 0.076 μmol/(min mgprot) | –
B6 | 66.8 µmol/mg/min | 87.7 µmol/mg/min | – | –
B7 | 15.7 µmol/mg/min | 170 µmol/mg/min | – | –
B8 | – | – | 0.028 μmol/(min mgprot) | Max. specific activity on preferred amino acid (L) [3]: 30.39^(L) μmol/(min mgprot)
B9 | – | – | 0.109 μmol/(min mgprot) | –
B10 | – | – | 0.057 μmol/(min mgprot) | –
